{
  "source": "patent US20090318350A1",
  "about": "“PAN-HER ANTAGONISTS AND METHODS OF USE” (priority 2006, published 2009)",
  "key": {"MCF-7 cells [1]": {"test_system": "MCF-7 cells", "settings": "stated as known; cited from earlier work"}, "MCF-7 cells [2]": {"test_system": "MCF-7 cells", "test": "Cell proliferation assay (WST-1), heregulin dependent MCF-7 cells", "assay_type": "cell-based, human", "settings": "72 hours, phage fusion or purified protein as labelled, read-out: Calculated cell proliferation (EC50)", "experimental": "(§1) Phage-fusion particles displaying ligand variants were evaluated for their ability to stimulate cell proliferation in the cell proliferation assay described herein in both an EGF dependent cell line, HER5 and a heregulin dependent cell line, MCF-7.\nMCF-7 cells (human breast cancer cell lines that express HER2 and HER3) were obtained from the American Type Culture Collection (ATCC). Stock cultures of MCF-7 were maintained in Eagle's MEM supplemented with 1% ITS-X (Invitrogen) and 10% fetal bovine serum.\nFor proliferation assays, MCF-7 cells were transferred to serum-free medium (SFM) for 24 hours and then trypsinized and suspended at 10^5 cells/mL in SFM. Fifty microliters of cell suspension (5000 cells) were plated per well in 96 well microtiter plates. Serial dilutions of HER ligands or mutant proteins were prepared at twice the final concentration in SFM and 50 ul was added to wells, bringing the final volume to 100 ul at the desired final concentration. Plates were incubated for 72 hours at 37 C in a humidified 5% CO2 atmosphere. Cell proliferation was determined by addition of 10 ul/well of WST-1 Cell Proliferation Reagent (Roche Applied Sciences, Indianapolis, Ind.) for the last three hours of the proliferation period."}, "HER5 cells [3]": {"test_system": "HER5 cells", "settings": "cited from earlier work"}, "Her-3": {"molecular_target": "Her-3 (Homo sapiens, UniProt P21860)", "sequence (P21860 20-1342)": "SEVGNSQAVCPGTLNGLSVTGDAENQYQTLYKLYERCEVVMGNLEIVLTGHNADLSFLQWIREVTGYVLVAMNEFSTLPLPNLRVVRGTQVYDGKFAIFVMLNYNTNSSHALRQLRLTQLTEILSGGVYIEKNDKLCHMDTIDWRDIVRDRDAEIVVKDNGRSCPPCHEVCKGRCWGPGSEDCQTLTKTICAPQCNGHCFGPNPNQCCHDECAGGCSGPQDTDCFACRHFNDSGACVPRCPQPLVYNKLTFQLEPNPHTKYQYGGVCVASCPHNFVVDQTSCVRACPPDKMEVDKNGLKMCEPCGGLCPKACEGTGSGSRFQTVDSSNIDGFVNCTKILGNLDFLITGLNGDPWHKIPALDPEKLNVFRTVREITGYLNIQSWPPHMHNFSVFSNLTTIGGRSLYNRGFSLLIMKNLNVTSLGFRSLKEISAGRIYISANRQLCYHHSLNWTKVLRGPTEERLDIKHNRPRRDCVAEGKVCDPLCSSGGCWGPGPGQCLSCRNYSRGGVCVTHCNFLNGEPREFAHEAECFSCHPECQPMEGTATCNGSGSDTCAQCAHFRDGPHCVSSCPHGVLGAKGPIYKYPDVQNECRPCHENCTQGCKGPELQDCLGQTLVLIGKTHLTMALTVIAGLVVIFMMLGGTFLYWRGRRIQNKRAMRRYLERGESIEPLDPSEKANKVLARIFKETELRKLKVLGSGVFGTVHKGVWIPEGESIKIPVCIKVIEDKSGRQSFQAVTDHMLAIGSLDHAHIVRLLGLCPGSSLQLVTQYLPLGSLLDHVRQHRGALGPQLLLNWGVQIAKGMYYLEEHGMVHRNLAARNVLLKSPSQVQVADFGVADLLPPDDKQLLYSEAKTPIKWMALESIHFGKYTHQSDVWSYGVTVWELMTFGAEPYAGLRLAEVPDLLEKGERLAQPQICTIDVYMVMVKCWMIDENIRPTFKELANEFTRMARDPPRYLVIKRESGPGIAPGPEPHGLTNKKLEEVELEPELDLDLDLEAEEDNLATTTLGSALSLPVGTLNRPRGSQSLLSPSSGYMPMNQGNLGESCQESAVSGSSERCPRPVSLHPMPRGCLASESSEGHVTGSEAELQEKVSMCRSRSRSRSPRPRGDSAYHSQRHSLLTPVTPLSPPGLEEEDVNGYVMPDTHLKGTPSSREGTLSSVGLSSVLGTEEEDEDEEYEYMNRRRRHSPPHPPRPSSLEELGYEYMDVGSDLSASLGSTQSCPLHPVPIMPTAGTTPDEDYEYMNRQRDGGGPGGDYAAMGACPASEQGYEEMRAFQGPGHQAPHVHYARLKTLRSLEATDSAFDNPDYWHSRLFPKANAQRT", "settings": "particularly for Her-3; cited from earlier work"}, "HER5 cells [4]": {"test_system": "HER5 cells", "test": "Cell proliferation assay (WST-1), EGF dependent HER5 cells", "assay_type": "cell-based, mouse", "settings": "48 hour proliferation, phage fusion or purified protein as labelled, read-out: Calculated cell proliferation (EC50)", "experimental": "as §1\nThe HER5 cell line, a murine fibroblast line (derived from the NR-6 line; mouse fibroblast cells that overexpress human EGFR) that has been stably transfected to express the human EGF receptor was provided by Dr. M. C. Hung (MD Anderson Cancer Center).\nStock cultures of HER5 were propagated in D-MEM/F12 medium containing 10% fetal bovine serum, 100 units/ml of penicillin and 100 ug/ml of streptomycin in a water-jacketed incubator at 37° C. in a humidified 5% CO2 atmosphere.\nFor HER5 proliferation assays, the cells were changed into DMEM/F12 without serum for 24 hours. Cells were then trypsinized and suspended at 1E5 cells/ml. Serial dilutions of EGF (PeproTech, Rocky Hill, N.J.), and HER ligand polypeptide variants were prepared in serum-free DMEM/F12 at 2-fold the final concentration and plated into the wells of 96-well plates. […] Cell proliferation was determined by addition of 10 ul/well of WST-1 Cell Proliferation Reagent (Roche Applied Sciences, Indianapolis, Ind.) for the last three hours of the proliferation period. […] The amount of formazan was measured at 450 nm using a microplate reader (Dynex Technologies) with MRX Revelation software."}},
  "data": [
    {"molecule": "Heregulin (purified protein): heregulin, native HER3/HER4 ligand, purified protein (protein) SHLVKCAEKEKTFCVNGGECFMVKDLSNPSRYLCKCPNEFTGDRCQNYVMASFYKHLGIEFMEAEELY", "values": [
      {"measurement": "stimulation of MCF-7 cells", "setting": "MCF-7 cells [1]", "value": "can be stimulated"},
      {"measurement": "EC50", "setting": "MCF-7 cells [2]", "value": 6.15, "unit": "nM"}
    ]},
    {"molecule": "T1ER41D: T1E with arginine of position 41 replaced by aspartate (protein) VVSHFNDCPLSHDGYCLHDGVCMYIEALDKYACNCVVGYIGEDCQYRDLKWWELRAETVESCLAKPHTENSFTNVWKDDKTLDRYANYEGCLWNATGVVVCTGDETQCYGTWVPIGLAIPENEGGGSEGGGSEGGGSEGGGTKPPEYGDTPIPGYTYINPLDGTYPPGTEQNPANPNPSLEESQPLNTFMFQNNRFRNRQGALTVYTGTVTQGTDPVKTYYQYTPVSSKAMYDAYWNGKFRDCAFHSGFNEDPFVCEYQGQSSDLPQPPVNAGGGSGGGSGGGSEGGGSEGGGSEGGGSEGGGSGGGSGSGDFDYEKMANANKGAMTENADENALQSDAKGKLDSVATDYGAAIDGFIGDVSGLANGNGATGDFAGSNSQMAQVGDGDNSPLMNNFRQYLPSLPQSVECRPFVFSAGKPYEFSIDCDKINLFRGVFAFLLYVATFMYVFSTFANILRNKES", "values": [
      {"measurement": "stimulation of cell proliferation in EGFR-dependent HER5 cells", "setting": "HER5 cells [3]; isolated ligand variants, previously demonstrated", "value": "greatly attenuated activity"}
    ]},
    {"molecule": "EGFwrs: EGF variant, residues 2 and 3 replaced with W and R, N-terminus NWRSE (protein) HHHHHHIEGRNWRSECPLSHDGYCLHDGVCMYIEALDKYACNCWGYIGERCQYRDLKWWELR", "values": [
      {"measurement": "binding affinity", "setting": "Her-3", "value": "high binding affinity"}
    ]},
    {"molecule": "EGF (purified protein): human epidermal growth factor, 53 amino acid cytokine (PeproTech) (protein) HHHHHHIEGRNSDSECPLSHDGYCLHDGVCMYIEALDKYACNCWGYIGERCQYRDLKWWELR", "values": [
      {"measurement": "EC50", "setting": "HER5 cells [4]", "value": 1.15, "unit": "nM"},
      {"measurement": "stimulation of HER5 cells", "setting": "HER5 cells [3]; stated as known", "value": "can be stimulated"},
      {"measurement": "stimulation of MCF-7 cells", "setting": "MCF-7 cells [1]", "value": "not"}
    ]}
  ]
}
